The values that follow come from article PMC6538622 (Scientific Reports, 2019).

This data set deals with the molecule itself. The experiment in a line: SEC-SAXS; 5-10 mg/ml protein in 10 mM DTT, 10 mM MgCl2, 0.5 M NaCl, 20 mM Tris pH 8; KW403-4F size-exclusion column, B21 beamline (Diamond Light Source); molecular mass from I(0). A general note: In gel filtration, larger molecules generally elute earlier.

B1: Escherichia coli RNase E N-terminal catalytic domain (domain or fragment)
chain: not shown
notes: also called EcRNase E NTD; E. coli RNase E NTD
A word on the stoichiometry N: it is the number of molecules, sites or subunits per partner or assembly. As for B1, the “stoichiometry N” value is 4.
